According to patent publication US6787341B2, “Pharmacological targeting of bacterial DNA ligase for treatment and prevention of bacterial infections” (priority 2001, dated 2004):

Tests used:
E. coli LigA [1] = details: reference 19; cited from earlier work
E. coli LigA [2] = format: biochemical; details: for phosphodiester formation at pre-adenylated nick: qualitative, magnesium, no added NAD+
Description: (§1) Reaction mixtures containing 1 pmol of ^32P-labeled nicked DNA-adenylate (AppDNA) and either 8 pmol of wild-type (WT) E. coli ligase, deletion mutants NΔ38 and NΔ78, or the full-length ligase proteins containing the indicated alanine mutations in domain Ia were incubated for 60 min at 22° C. The reaction products were resolved by denaturing PAGE. An autoradiograph of the gel is shown. Control reaction mixtures containing either ^32P-labeled nicked DNA-adenylate (AppDNA) or nicked DNA (pDNA) substrates and no ligase are shown in lanes -. The positions of the pDNA, AppDNA, and ligated 36-mer DNA strands are indicated by arrows on the right. The position of the radiolabeled phosphate of AppDNA is denoted by •. The nicked DNA-adenylate substrate used in the ligation reactions is illustrated at the bottom.
(§2) The nicked DNA-adenylate substrate is illustrated in FIG. 13. The DNA-adenylate ligation reaction mixtures (20 μl) contained 50 mM Tris-HCl (pH 7.5), 5 mM DTT, 5 mM MgCl2, 200 fmol of nicked DNA-adenylate substrate, 2 pmol of wild-type or mutant EcoLigA proteins as specified were incubated at 22° C. The sealing reactions were initiated by adding ligase. Aliquots (20 μl) were withdrawn at the times specified and quenched immediately with EDTA and formamide. The products were resolved by denaturing PAGE and the extents of ligation were determined by scanning the gel with a phosphorimager. The extent of strand joining is plotted as a function of reaction time.
(§3) The third step of the ligation pathway entails attack of the 3′ OH of the nick on the 5′ PO4 of the DNA-adenylate to form a phosphodiester and release AMP. Step 3 of the ligation reaction was assayed using a pre-adenylated nicked DNA substrate labeled with ^32P on the 5′ PO4 of the DNA-adenylate strand (FIG. 13).

E. coli LigA [3] = format: biochemical; details: qualitative
Description: FIG. 12A: Aliquots (5 μg) of wild-type (WT) E. coli ligase, N-terminal deletion mutants NΔ38 and NΔ78, and the full-length ligase proteins containing the indicated alanine mutations in domain Ia were analyzed by SDS-PAGE. A Coomassie blue-stained gel is shown. FIG. 12B: Ligase adenylation reaction mixtures (20 μl) containing 50 mM Tris-HCl (pH 7.5), 5 mM DTT, 5 mM MgCl2, 1 μM [α-^32P]NAD^+ and 8 pmol of WT ligase, NΔ38, NΔ78, or the indicated alanine mutants were incubated for 5 min at 37° C. The reaction products were resolved by SDS-PAGE and visualized by autoradiography. FIG. 12C: Nick joining reaction mixtures (20 μl) containing 50 mM Tris-HCl (pH 7.5), 10 mM (NH4)2SO4, 5 mM DTT, 5 mM MgCl2, 20 μM NAD^+, 1 pmol of ^32P-labeled nicked DNA, and increasing amounts of WT ligase or the indicated alanine mutants were incubated for 10 min at 22° C. The extents of ligation are plotted as a function of input protein.
FIG. 15A: Aliquots (5 μg) of wild-type (WT) E. coli ligase and proteins containing the indicated mutations in domain Ia were analyzed by SDS-PAGE. The Coomassie blue-stained gel is shown. The positions and sizes (in kDa) of marker proteins are indicated on the left. FIG. 15B: Ligase adenylation reaction mixtures (20 μl) containing 50 mM Tris-HCl (pH 7.5), 5 mM DTT, 5 mM MgCl2, 1 μM [α-^32P]NAD^+ and 8 pmol of WT ligase or the indicated mutants were incubated for 5 min at 37° C. The reaction products were resolved by SDS-PAGE and visualized by autoradiography.
Reaction mixtures containing (per 20 μl) 50 mM Tris-HCl (pH 7.5), 5 mM DTT, 5 mM MgCl2, 1 μM [^32P-AMP]NAD^+ and 8 pmol of ligase were incubated at 22° C. Aliquots (20 μl) were withdrawn at 15, 30, 60 and 120 s and then quenched immediately with SDS. The products were analyzed by SDS-PAGE. Formation of the ligase-[^32P]AMP adduct is plotted as a function of time.
The first step in DNA ligation involves formation of a covalent enzyme-adenylate intermediate.

E. coli LigA [4] = target: E. coli LigA (Escherichia coli, UniProt P15042); format: biochemical
Description: as §1, §2, §3

Molecule | nick joining activity (prior studies) (E. coli LigA [1]) | effect on rate or extent (yield) of phosphodiester formation at a pre-adenylated nick (E. coli LigA [2]) | phosphodiester formation at pre-adenylated nick (E. coli LigA [2]) | ligase adenylation (ligase-AMP formation) with NAD+ (E. coli LigA [3]) | effect on the rate of approach to the endpoint of step 3 reaction (E. coli LigA [4])
NΔ38: N-terminal deletion of E. coli DNA ligase LigA eliminating part of domain Ia (protein, UniProt P15042 39-671, looked up, fragment) MRELRELETKHPELITPDSPTQRVGAAPLAAFSQIRHEVPMLSLDNVFDEESFLAFNKRVQDRLKNNEKVTWCCELKLDGLAVSILYENGVLVSAATRGDGTTGEDITSNVRTIRAIPLKLHGENIPARLEVRGEVFLPQAGFEKINEDARRTGGKVFANPRNAAAGSLRQLDPRITAKRPLTFFCYGVGVLEGGELPDTHLGRLLQFKKWGLPVSDRVTLCESAEEVLAFYHKVEEDRPTLGFDIDGVVIKVNSLAQQEQLGFVARAPRWAVAFKFPAQEQMTFVRDVEFQVGRTGAITPVARLEPVHVAGVLVSNATLHNADEIERLGLRIGDKVVIRRAGDVIPQVVNVVLSERPEDTREVVFPTHCPVCGSDVERVEGEAVARCTGGLICGAQRKESLKHFVSRRAMDVDGMGDKIIDQLVEKEYVHTPADLFKLTAGKLTGLERMGPKSAQNVVNALEKAKETTFARFLYALGIREVGEATAAGLAAYFGTLEALEAASIEELQKVPDVGIVVASHVHNFFAEESNRNVISELLAEGVHWPAPIVINAEEIDSPFAGKTVVLTGSLSQMSRDDAKARLVELGAKVAGSVSKKTDLVIAGEAAGSKLAKAQELGIEVIDEAEMLRLLGS | complete loss | no effect | capable of forming a phosphodiester bond | inert | 
NΔ78: N-terminal deletion of E. coli DNA ligase LigA eliminating domain Ia (protein, UniProt P15042 79-671, looked up, fragment) MLSLDNVFDEESFLAFNKRVQDRLKNNEKVTWCCELKLDGLAVSILYENGVLVSAATRGDGTTGEDITSNVRTIRAIPLKLHGENIPARLEVRGEVFLPQAGFEKINEDARRTGGKVFANPRNAAAGSLRQLDPRITAKRPLTFFCYGVGVLEGGELPDTHLGRLLQFKKWGLPVSDRVTLCESAEEVLAFYHKVEEDRPTLGFDIDGVVIKVNSLAQQEQLGFVARAPRWAVAFKFPAQEQMTFVRDVEFQVGRTGAITPVARLEPVHVAGVLVSNATLHNADEIERLGLRIGDKVVIRRAGDVIPQVVNVVLSERPEDTREVVFPTHCPVCGSDVERVEGEAVARCTGGLICGAQRKESLKHFVSRRAMDVDGMGDKIIDQLVEKEYVHTPADLFKLTAGKLTGLERMGPKSAQNVVNALEKAKETTFARFLYALGIREVGEATAAGLAAYFGTLEALEAASIEELQKVPDVGIVVASHVHNFFAEESNRNVISELLAEGVHWPAPIVINAEEIDSPFAGKTVVLTGSLSQMSRDDAKARLVELGAKVAGSVSKKTDLVIAGEAAGSKLAKAQELGIEVIDEAEMLRLLGS | complete loss |  | capable of forming a phosphodiester bond | inert | 2 fold
